In this data set the target is T1, CCR7 (human) (UniProt P32248).
T1 sequence: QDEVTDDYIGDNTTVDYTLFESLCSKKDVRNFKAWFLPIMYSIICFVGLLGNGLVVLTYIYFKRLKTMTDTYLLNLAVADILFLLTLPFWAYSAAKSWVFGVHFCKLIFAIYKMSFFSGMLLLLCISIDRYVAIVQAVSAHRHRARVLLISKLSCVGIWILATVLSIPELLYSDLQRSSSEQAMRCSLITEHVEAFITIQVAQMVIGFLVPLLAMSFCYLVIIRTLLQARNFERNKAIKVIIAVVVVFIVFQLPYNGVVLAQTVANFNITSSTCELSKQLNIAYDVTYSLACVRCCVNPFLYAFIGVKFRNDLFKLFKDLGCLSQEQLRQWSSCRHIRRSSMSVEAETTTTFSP
Kind of data set: flow cytometry, live cells. Conditions: H9 cells (CCR7 positive), Cy3-RNA; 2'-F C and 2'-F U (all pyrimidines); Flow cytometry: 2.5e5 cells in 100 uL binding buffer, 30 min, room temperature; refolding/washing buffer DPBS pH 7.0-7.4, 1 mM CaCl2, 1 mM MgCl2, 2.7 mM KCl ….

For orientation: Kd means the equilibrium constant for the complex coming apart. Read a low Kd as higher affinity. Sequence “GGGAGGACGAUGCGGUGCCGCACAUUAGUCUCUGGUUGCCCACGCCAGACGACUCGCCCGA [DD9-9]” yielded a Kd of 111 nM.

Consider “GGGAGGACGAUGCGGAAUUCGUCAAAGUCGUUUAUUUCGUCUGUGCAGACGACUCGCCCGA [C-2A]”, for which the equilibrium dissociation constant (Kd) stood at 65.2 nM. Compared with the last sequence, the Kd is about 1.7-fold lower.
